Test results taken from patent publication US20240270866A1 (Alector, published 2024).
Positions count from the first letter of the chain named. One block for each binder: values may come before it.

Legend:
[1] = molecular target: T1, human SIRPA Fc fusion antigen (human, UniProt P78324 31-373); experiment: ForteBio Fab monovalent
T1 construct: heterologous signal peptide; not shown: human IgG1 Fc

[2] = molecular target: T2, mouse SIRPA overexpressed on CHO cells (mouse, UniProt P97797 32-513); experiment: flow, CHO-muSIRPA;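 for relative MFI: antibody binding measured by flow cytometry: cells stained with 1 ug/ml test antibody for 1 h on ice, detected with PE-labelled secondary antibody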
T2 construct: also called CHO-muSIRPA
T2 sequence: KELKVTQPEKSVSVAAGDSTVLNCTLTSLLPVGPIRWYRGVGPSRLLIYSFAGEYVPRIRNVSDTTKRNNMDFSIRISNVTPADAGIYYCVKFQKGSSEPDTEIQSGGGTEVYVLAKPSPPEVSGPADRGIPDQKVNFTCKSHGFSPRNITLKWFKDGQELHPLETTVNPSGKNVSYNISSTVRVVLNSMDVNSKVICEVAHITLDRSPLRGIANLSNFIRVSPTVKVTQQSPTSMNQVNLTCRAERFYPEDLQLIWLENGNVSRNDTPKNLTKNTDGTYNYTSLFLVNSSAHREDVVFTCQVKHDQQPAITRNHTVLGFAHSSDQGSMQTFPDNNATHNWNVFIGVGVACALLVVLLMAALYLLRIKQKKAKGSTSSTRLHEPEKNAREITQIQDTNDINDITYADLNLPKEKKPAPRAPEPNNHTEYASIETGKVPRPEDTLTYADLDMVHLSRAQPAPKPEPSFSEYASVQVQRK

[3] = molecular target: T3, Human SIRPA D1 Fc (human, UniProt P78324 32-137); experiment: ForteBio IgG avid;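 note: antibody IgG captured on AHQ biosensors, then 100 nM Fc-fused SIRP antigen applied for 3 min, followed by 3 min buffer dissociation, kinetics fitted to a 1:1 model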
T3 construct: not shown: human IgG1 Fc

[4] = molecular target: T4, Mouse SIRPA D1 Fc (mouse, UniProt P97797 32-150, limits assumed); experiment: ForteBio IgG avid;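 note: antibody IgG captured on AHQ biosensors, then 100 nM Fc-fused SIRP antigen applied for 3 min, followed by 3 min buffer dissociation, kinetics fitted to a 1:1 model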
T4 sequence: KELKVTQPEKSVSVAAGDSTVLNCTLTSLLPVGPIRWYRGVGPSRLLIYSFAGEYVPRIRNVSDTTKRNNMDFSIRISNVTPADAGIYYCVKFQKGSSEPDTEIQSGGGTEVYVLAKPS

[5] = molecular target: Human SIRPb D1 Fc (human, UniProt O00241 30-148, limits assumed); experiment: ForteBio IgG avid;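 note: antibody IgG captured on AHQ biosensors, then 100 nM Fc-fused SIRP antigen applied for 3 min, followed by 3 min buffer dissociation, kinetics fitted to a 1:1 model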
Chain of Human SIRPb D1 Fc (O00241 30-148 limits assumed): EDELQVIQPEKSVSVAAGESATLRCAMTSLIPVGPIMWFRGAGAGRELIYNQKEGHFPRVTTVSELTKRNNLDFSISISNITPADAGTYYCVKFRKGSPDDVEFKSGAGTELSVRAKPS

[6] = molecular target: T5, human SIRPA overexpressed on CHO cells (human, UniProt P78324 31-504); experiment: flow, CHO-huSIRPA;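 note: Anti-SIRPA antibodies applied at 1 µg/mL for 1 h on ice, binding read by flow cytometry using a PE-labelled secondary antibody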
T5 construct: also called CHO-huSIRPA
Procedure: (§1) Initial characterization of anti-SIRPA antibodies of the present disclosure involved determining their ability to bind cell lines overexpressing human or mouse SIRPA. Cells were harvested, plated at 10⁶/ml in a 96 well plate, washed, and incubated in 100 ul PBS containing 1 ug/ml Mab for 1 hour in ice. Cells were then washed twice and incubated in 100 ul PBS containing 5 ug/ml PE-conjugated secondary antibody for 30 minutes in ice. Cells were washed twice in cold PBS and acquired on a BD FACS Canto. Data analysis and calculation of mean fluorescence intensity (MFI) values or % positive cells was performed with FlowJo® (TreeStar) software version 10.0.7.

[7] = molecular target: T2, mouse SIRPA overexpressed on CHO cells; experiment: flow, CHO-muSIRPA; remark: listed apart in the source;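 for relative MFI: antibody binding measured by flow cytometry: cells stained with 1 ug/ml test antibody for 1 h on ice, detected with PE-labelled secondary antibody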
Procedure: as §1

[8] = molecular target: T1, human SIRPA Fc fusion antigen; experiment: ForteBio IgG avid;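 note: ForteBio sensor-based avid binding of anti-SIRPA antibodies in IgG format, with the binding partner in solution at 100 nM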
Procedure: The affinities of the anti-SIRPA antibodies were determined by measuring KD values by ForteBio and MSD. […] Briefly, ForteBio affinity measurements were performed by loading immunoglobulins (IgGs) on-line onto AHQ sensors. Sensors were equilibrated off-line in assay buffer for 30 min and then monitored on-line for 60 seconds for baseline establishment. For avid binding measurement, sensors with loaded IgGs were exposed to 100 nM antigen (human SIRPA or SIRPβ1 Fc fusion) for 3 min, afterwards they were transferred to assay buffer for 3 min for off-rate measurement. Additional avid binding was determined by loading biotinylated SIRPA monomer on SA sensors and exposure to 100 nM IgG in solution. Monovalent binding measurements were obtained by loading human SIRPA Fc fusion antigens to AHQ sensor and followed by exposure to 100 nM anti-SIRPA antibody Fab.

[9] = molecular target: T6, human SIRPβ1 Fc fusion antigen (human, UniProt O00241 30-371); experiment: ForteBio IgG avid;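 note: ForteBio sensor-based avid binding of anti-SIRPA antibodies in IgG format, with the binding partner in solution at 100 nM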
T6 construct: not shown: human IgG1 Fc
T6 sequence (O00241 30-371 limits assumed): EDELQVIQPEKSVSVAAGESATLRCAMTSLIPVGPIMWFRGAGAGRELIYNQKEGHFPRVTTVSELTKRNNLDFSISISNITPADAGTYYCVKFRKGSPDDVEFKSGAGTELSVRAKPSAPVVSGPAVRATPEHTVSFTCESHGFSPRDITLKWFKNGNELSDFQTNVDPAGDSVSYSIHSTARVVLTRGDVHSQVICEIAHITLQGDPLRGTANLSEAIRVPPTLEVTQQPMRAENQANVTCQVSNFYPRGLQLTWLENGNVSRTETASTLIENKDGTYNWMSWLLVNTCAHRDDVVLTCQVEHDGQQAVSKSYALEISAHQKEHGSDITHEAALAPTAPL

[10] = molecular target: human SIRPA-DAP12 chimera on BWZ NFAT-luciferase reporter cells (human, UniProt O43914 62-113, limits assumed); experiment: cell-based or functional assay
[11] = molecular target: T1, human SIRPA Fc fusion antigen; experiment: ForteBio Fab monovalent; remark: listed apart in the source
Procedure: (§2) Briefly, ForteBio affinity measurements were performed by loading immunoglobulins (IgGs) on-line onto AHQ sensors. Sensors were equilibrated off-line in assay buffer for 30 min and then monitored on-line for 60 seconds for baseline establishment. For avid binding measurement, sensors with loaded IgGs were exposed to 100 nM antigen (human SIRPA or SIRPβ1 Fc fusion) for 3 min, afterwards they were transferred to assay buffer for 3 min for off-rate measurement. […] Monovalent binding measurements were obtained by loading human SIRPA Fc fusion antigens to AHQ sensor and followed by exposure to 100 nM anti-SIRPA antibody Fab.
(§3) Additional monovalent measurements were made by loading biotinylated human SIRPA monomer to SA sensor followed by exposure to 100 nM Fab in solution. Kinetics data were fit using a 1:1 binding model in the data analysis software provided by ForteBio.

[12] = molecular target: T6, human SIRPβ1 Fc fusion antigen; experiment: ForteBio Fab monovalent
Procedure: as §2, §3

[13] = molecular target: T7, biotinylated human SIRPA (monomer) (human, UniProt P78324 31-373, limits assumed, biotinylated); experiment: MSD-SET, Fab, equilibrium;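 note: solution equilibrium titration, free antigen captured on antibody-coated MSD plates and detected by electrochemiluminescence with labeled streptavidin, percent free antigen versus titrated antibody fit to quadratic model for KD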
T7 construct: monomer made by IdeS cleavage of a SIRPA Fc fusion; also called recombinant human SIRPA
Procedure: Antibodies (20 nM in PBS) were coated onto standard bind MSD-ECL plates overnight at 4° C. or at room temperature for 30 min. Plates were then blocked with 1% BSA for 30 min with shaking at 700 rpm, followed by three washes with wash buffer (PBSF+0.05% Tween 20). SET samples were applied and incubated on the plates for 150s with shaking at 700 rpm followed by one wash. Antigen captured on a plate was detected with 250 ng/ml sulfotag-labeled streptavidin in PBSF by incubation on the plate for 3 min. The plates were washed three times with wash buffer and then read on the MSD Sector Imager 2400 instrument using 1× Read Buffer T with surfactant. The percent free antigen was plotted as a function of titrated antibody in Prism and fit to a quadratic equation to extract the KD. To improve throughput, liquid handling robots were used throughout MSD-SET experiments, including SET sample preparation.

[14] = molecular target: human SIRPA D40A with C-terminal V5 tag on HEK-293T cells (human, UniProt P78324 31-504); experiment: flow cytometry, Fab on HEK-293T cells with the mutant
Procedure: (§4) Epitope mapping of anti-SIRPA antibodies was performed using an alanine-scanning library created by shotgun mutagenesis of the human SIRPA cDNA sequence.
(§5) Antibodies were digested to generate Fabs, after which cells were incubated with Fabs diluted in 10% normal goat serum (NGS) (Sigma-Aldrich, St. Louis, MO). Prior to library screening, primary Fab concentrations were determined using an independent immunofluorescence titration curve against cells expressing wild type SIRPA to ensure that signals were within the linear range of detection. Fabs were detected using 7.5 μg/ml AlexaFluor488-conjugated secondary antibody (Jackson ImmunoResearch Laboratories, Westgrove, PA) in 10% NGS. Cells were washed twice with PBS and resuspended in Cellstripper (Cellgro, Manassas, VA) with 0.1% BSA (Sigma-Aldrich, St. Louis, MO). In some cases, higher stringency conditions were used, including increased pH, increased temperature, and increased dissociation time. Mean cellular fluorescence was detected using the Intellicyt high throughput flow cytometer (HTFC, Intellicyt, Albuquerque, NM). Fab reactivities against each mutant clone were calculated relative to wild-type SIRPA protein reactivity by subtracting the signal from mock-transfected controls, and normalizing to the signal from wild-type SIRPA transfected controls.

[15] = molecular target: human SIRPA R54A with C-terminal V5 tag on HEK-293T cells (human, UniProt P78324 31-504); experiment: as above
Procedure: as §4, §5

[16] = molecular target: human SIRPA W68A with C-terminal V5 tag on HEK-293T cells (human, UniProt P78324 31-504); experiment: as above
Procedure: as §4, §5

B1: SA-28 Fab (Fab, V domains shown)
VH: QVQLQESGPGLVKPSQTLSLTCTVSGGSISSGGYYWSWIRQHPGKGLEWIGNIYYSGSTYYNPSLKSRVTISVDTSKNQFSLKLSSVTAADTAVYYCARDSDTSWGGFDYWGQGTLVTVSS
VL: EIVLTQSPGTLSLSPGERATLSCRASQSVRSSYLAWYQQKPGQAPRLLIYGASSRATGIPDRFSGSGSGTDFTLTISRLEPEDFAVYYCQQAGVSPYTFGGGTKVEIK
notes: papain Fab
Kd [1]: 486 nM

B4: SA-56 Fab (Fab, V domains shown)
VH: EVQLVESGGGLVKPGGSLRLSCAASGFTFSSYSMNWVRQAPGKGLEWVSSISSSSSYIYYADSVKGRFTISRDNAKNSLYLQMNSLRAEDTAVYYCARGVETYSGPNWFDPWGQGTLVTVSS
VL: DIQMTQSPSSVSASVGDRVTITCRASQGISSWLAWYQQKPGKAPKLLIYAASSLQSGVPSRFSGSGSGTDFTLTISSLQPEDFATYYCQQAIYFPITFGGGTKVEIK
notes: papain Fab; also called SA-56 (parental)
Kd [1]: 301 nM | Kd [11]: 206 nM | binding result [12]: no binding (tested: 100 nM)

B5: SA-56-94 Fab (Fab, V domains shown)
VH: EVQLVESGGGVVQPGRSLRLSCAASGFTFSYYGMSWVRQAPGKGLEWVASIWVDGSNKYYADSVKGRFTISRDNSKNTLYLQMNSLRAEDTAVYYCAVGTETYSGPNWFDPWGQGTLVTVSS
VL: B4 VL
notes: papain Fab; also called SA-94
Kd [11]: 3.43 nM | binding result [12]: no binding (tested: 100 nM) | Kd [13]: 0.88 nM | Binding Reactivity (% WT), mean [14]: 0.2 % WT | Binding Reactivity (% WT), mean [15]: 2.9 % WT | Binding Reactivity (% WT), mean [16]: 25.6 % WT

B7: SA-56-88 Fab (Fab, V domains shown)
VH: B5 VH with V64A, V98E, T100K
VL: B4 VL
notes: papain Fab
Kd [11]: 0.836 nM | binding result [12]: no binding (tested: 100 nM) | Kd [13]: 0.16 nM

B13: SA-35 Fab (Fab, V domains shown)
VH: QVQLVQSGAEVKKPGASVKVSCKASGYTFTSYYMHWVRQAPGQGLEWMGIINPSGGSTSYAQKFQGRVTMTRDTSTSTVYMELSSLRSEDTAVYYCAREAGYDIKGFDYWGQGTLVTVSS
VL: DIQMTQSPSTLSASVGDRVTITCRASQSISSWLAWYQQKPGKAPKLLIYKASSLESGVPSRFSGSGSGTEFTLTISSLQPDDFATYYCQQYGSFPLTFGGGTKVEIK
Kd [1]: 497 nM

B14: SA-38 Fab (Fab, V domains shown)
VH: QVQLQESGPGLVKPSQTLSLTCTVSGGSISSGGYYWSWIRQHPGKGLEWIGSIYYSGSTYYNPSLKSRVTISVDTSKNQFSLKLSSVTAADTAVYYCAREGAYSLYVNWFDPWGQGTLVTVSS
VL: EIVMTQSPATLSVSPGERATLSCRASQSVSSSLAWYQQKPGQAPRLLIFGASTRATGIPARFSGSGSGTEFTLTISSLQSEDFAVYYCQQYDNYPPITFGGGTKVEIK
notes: papain Fab
Kd [1]: 281 nM

B15: SA-39 Fab (Fab, V domains shown)
VH: QVQLVQSGAEVKKPGASVKVSCKASGYTFTSYYMVWVRQAPGQGLEWMGIINPSGGSTSYAQKFQGRVTMTRDTSTSTVYMELSSLRSEDTAVYYCAREGGYGYRAYPYGMDVWGQGTTVTVSS
VL: DIQMTQSPSSLSASVGDRVTITCQASQDISNSLNWYQQKPGKAPKLLIYDASNLETGVPSRFSGSRSGTDFTFTISSLQPEDIATYYCQQVIILPLTFGGGTKVEIK
notes: papain Fab
Kd [1]: 100 nM

B16: SA-36 Fab (Fab, V domains shown)
VH: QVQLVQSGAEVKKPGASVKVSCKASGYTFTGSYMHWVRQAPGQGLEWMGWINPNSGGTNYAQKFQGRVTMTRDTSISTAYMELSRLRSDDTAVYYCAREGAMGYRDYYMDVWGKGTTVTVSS
VL: EIVLTQSPATLSLSPGERATITCQASQDISSYLAWYQQKPGQAPRLLIYDASNRATGIPARFSGSGSGTDFTLTISSLEPEDFAVYYCQQRTHYPWTFGGGTKVEIK
notes: papain Fab
Kd [1]: 2070 nM

B17: SA-16 Fab (Fab, V domains shown)
VH: QVQLQQWGAGLLKPSETLSLTCAVYGGSFSGYYWSWIRQPPGKGLEWIGEIDHSGSTNYNPSLKSRVTISVDTSKNQFSLKLSSVTAADTAVYYCARDLGPPGPHLDVWGQGTMVTVSS
VL: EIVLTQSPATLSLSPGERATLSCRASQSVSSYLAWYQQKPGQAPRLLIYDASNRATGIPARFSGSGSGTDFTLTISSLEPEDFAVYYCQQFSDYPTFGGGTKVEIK
notes: papain Fab
Kd [1]: 257 nM

Now from value to binder:

binding result [2]: no binding (tested: 1 ug/ml) | Kd [3]: 2.81 nM | binding result [4]: no binding (tested: 100 nM) | binding result [5]: no binding (tested: 100 nM) | relative MFI [6]: 128 fold over background | relative MFI [7]: 0.583 fold over background | Kd [8]: 2.04 nM | binding result [9]: no binding (tested: 100 nM) | luminescence of BWZ-huSIRPA reporter cells with SA-56 and plate-bound CD47 [10]: ~10 fold over background
B2: SA-56 (antibody, V domains shown)
VH: B4 VH
VL: B4 VL
notes: IgG; also called SA-56 (parental)

Kd [11]: 1.11 nM | binding result [12]: no binding (tested: 100 nM) | Kd [13]: 0.17 nM | Binding Reactivity (% WT), mean [14]: 0.4 % WT | Binding Reactivity (% WT), mean [15]: 1.7 % WT | Binding Reactivity (% WT), mean [16]: 19.3 % WT
B3: SA-56-90 Fab (Fab, V domains shown)
VH: B5 VH with E1Q, F27S, Y31H, N84D, V98R, T100V
VL: B4 VL
notes: papain Fab; also called SA-90

Kd [11]: 1.64 nM | binding result [12]: no binding (tested: 100 nM) | Kd [13]: 0.51 nM
B6: SA-56-91 Fab (Fab, V domains shown)
VH: B5 VH with S30A, Y31H, S35A, V98T, G99A, T100V
VL: B4 VL
notes: papain Fab

Kd [11]: 1.29 nM | binding result [12]: no binding (tested: 100 nM) | Kd [13]: 0.35 nM
B8: SA-56-92 Fab (Fab, V domains shown)
VH: B5 VH with N84D, V98T, T100V
VL: B4 VL
notes: papain Fab

Kd [11]: 2.34 nM | binding result [12]: no binding (tested: 100 nM) | Kd [13]: 0.36 nM
B9: SA-56-93 Fab (Fab, V domains shown)
VH: B5 VH with V5L, T78A, G99S, T100R
VL: B4 VL
notes: papain Fab

Kd [11]: 1.03 nM | binding result [12]: no binding (tested: 100 nM) | Kd [13]: 0.25 nM
B10: SA-56-89 Fab (Fab, V domains shown)
VH: B5 VH with R16G, I70V, N84D, V98R, T100V
VL: B4 VL
notes: papain Fab

Kd [11]: 2.98 nM | binding result [12]: no binding (tested: 100 nM) | Kd [13]: 0.52 nM
B11: SA-56-95 Fab (Fab, V domains shown)
VH: B5 VH with V5L, S30A, Y31H, S35A, S50V, N57P, G99A, T100R
VL: B4 VL
notes: papain Fab

Kd [11]: 5.35 nM | binding result [12]: no binding (tested: 100 nM) | Kd [13]: 1.6 nM
B12: SA-56-96 Fab (Fab, V domains shown)
VH: B5 VH with V5L, Y31S, G33A, S35G, S50V, N57L, V98T, T100R
VL: B4 VL
notes: papain Fab
